Laboratory results taken from US20120231006A1 (Amgen, published 2012).
Values belong to the binder of their own block, whether it stands above or below them.

Legend:
[1] = biological target: T1, mOrai1-hOrai1 ECL2 (…) protein (human/mouse chimera, UniProt Q8BWG9 1-304 (mouse entry)); assay: FACS, 293EBNA, RFI-POC grade; set-up: concentration or dose not given beside the values
T1 construct: also called Ch
Source text: (§1) FIG. 16A-D illustrates the results of FACS analysis showing binding to the indicated mOrai1-hOrai1 ECL2 chimeric mutants expressed on the surface of HEK-293-EBNA cells. Transfected cells were stained first with recombinant monoclonal antibodies then counter-stained with a secondary phycoerythrin-labeled goat (“Gt”) anti-human (“Hu”) IgG F(ab′)₂ antibody fragment and visualized using FACS. In FIG. 16B and FIG. 16D, The values of Relative Fluorescence Intensity as Percent of Control (RFI-POC) are calculated from the relative fluorescence intensity geometric mean (Geo Mean). The geometric mean is an average calculated by multiplying a series of numbers and taking the nth root where n is the number of numbers in the series. It is a statistical average of a set of transformed numbers often used to represent a central tendency in a highly variable data set that minimizes the effects of extreme values.
(§2) Table 11A and Table 11B feature a schematic representation of the POC data from FIG. 16B and FIG. 16D, respectively, where the binding results are recorded as (+++) denoting binding POC from 40% to 100%, (++) for POC of 5% to less than 40%, (+) for POC from 1% to less than 5% and (−) as lack of binding with POC less than 1%.

[2] = biological target: T2, mOrai1-hOrai1 ECL2 (AESVIV) protein (human/mouse chimera, UniProt Q8BWG9 1-304 (mouse entry)); assay: FACS, 293EBNA, RFI-POC grade; set-up: concentration or dose not given beside the values
T2 construct: also called Ch
T2 sequence (Q8BWG9 other isoform, or with tags, fused parts or gaps): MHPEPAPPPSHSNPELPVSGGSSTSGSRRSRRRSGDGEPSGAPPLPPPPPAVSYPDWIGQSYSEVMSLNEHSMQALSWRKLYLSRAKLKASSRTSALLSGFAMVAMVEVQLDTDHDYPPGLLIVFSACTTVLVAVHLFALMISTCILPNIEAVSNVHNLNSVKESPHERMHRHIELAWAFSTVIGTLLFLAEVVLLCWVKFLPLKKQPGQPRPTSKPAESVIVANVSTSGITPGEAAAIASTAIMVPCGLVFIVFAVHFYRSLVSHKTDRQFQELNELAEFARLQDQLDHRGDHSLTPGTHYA
Source text: as §1, §2

[3] = biological target: T1, mOrai1-hOrai1 ECL2 (…) protein; assay: FACS, 293EBNA transfectants [D00030 FIG. 16D]
Source text: as §1, §2

[4] = biological target: T2, mOrai1-hOrai1 ECL2 (AESVIV) protein; assay: FACS, 293EBNA transfectants [D00030 FIG. 16D]
Source text: as §1, §2

cynomolgus Orai1 = cynomolgus Orai1 (cynomolgus monkey, UniProt Q96D31 1-301 (human entry)); assay: cell-based or functional assay
cynomolgus Orai1, sequence (Q96D31 other isoform, or with tags, fused parts or gaps): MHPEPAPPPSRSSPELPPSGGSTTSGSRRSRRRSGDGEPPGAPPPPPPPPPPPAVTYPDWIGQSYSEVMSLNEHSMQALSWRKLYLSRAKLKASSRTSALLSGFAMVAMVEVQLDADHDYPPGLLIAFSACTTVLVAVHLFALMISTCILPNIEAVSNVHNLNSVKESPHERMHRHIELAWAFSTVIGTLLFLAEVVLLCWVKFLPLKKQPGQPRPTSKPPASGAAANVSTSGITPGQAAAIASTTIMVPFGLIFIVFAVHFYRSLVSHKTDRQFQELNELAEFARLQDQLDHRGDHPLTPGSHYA

[5] = biological target: T3, mOrai1-hOrai1 ECL2 (VIV) protein (human/mouse chimera, UniProt Q8BWG9 1-304 (mouse entry)); assay: FACS, 293EBNA transfectants [D00028 FIG. 16B]
T3 construct: also called Ch
T3 sequence (Q8BWG9 other isoform, or with tags, fused parts or gaps): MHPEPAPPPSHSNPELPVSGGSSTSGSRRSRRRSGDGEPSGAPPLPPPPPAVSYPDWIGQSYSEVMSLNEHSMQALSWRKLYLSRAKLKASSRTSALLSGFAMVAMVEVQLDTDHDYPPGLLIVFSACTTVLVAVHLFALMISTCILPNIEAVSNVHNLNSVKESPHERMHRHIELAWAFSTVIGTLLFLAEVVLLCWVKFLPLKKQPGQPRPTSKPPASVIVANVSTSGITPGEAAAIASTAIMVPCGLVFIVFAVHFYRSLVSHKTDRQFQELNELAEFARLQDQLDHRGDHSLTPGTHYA
Source text: as §1, §2

[6] = biological target: T4, mOrai1-hOrai1 ECL2 chimeric protein (human/mouse chimera, UniProt Q8BWG9 1-304 (mouse entry)); assay: FACS, 293EBNA transfectants [D00028 FIG. 16B]
T4 construct: mouse Orai1 with human ECL2; also called Ch
T4 sequence (Q8BWG9 other isoform, or with tags, fused parts or gaps mutant): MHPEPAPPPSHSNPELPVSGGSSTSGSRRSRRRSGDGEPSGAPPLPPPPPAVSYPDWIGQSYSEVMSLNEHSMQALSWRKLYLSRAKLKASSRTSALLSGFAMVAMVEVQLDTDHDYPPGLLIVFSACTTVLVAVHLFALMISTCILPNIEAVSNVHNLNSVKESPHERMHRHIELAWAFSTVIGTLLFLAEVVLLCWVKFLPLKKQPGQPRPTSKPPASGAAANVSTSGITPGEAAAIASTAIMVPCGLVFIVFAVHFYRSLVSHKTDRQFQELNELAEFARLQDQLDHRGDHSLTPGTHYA
Source text: as §1, §2

[7] = biological target: T5, mOrai1-hOrai1 ECL2 (HSD) protein (human/mouse chimera, UniProt Q8BWG9 1-304 (mouse entry)); assay: FACS, 293EBNA transfectants [D00028 FIG. 16B]
T5 construct: also called Ch
T5 sequence (Q8BWG9 other isoform, or with tags, fused parts or gaps): as the sequence (Q8BWG9 other isoform, or with tags, fused parts or gaps mutant) above, with V226H, T228D counted along it
Source text: as §1, §2

T1 sequence (Q8BWG9 other isoform, or with tags, fused parts or gaps): as the sequence (Q8BWG9 other isoform, or with tags, fused parts or gaps mutant) above, with P218A, A219E, G221V, A222I, A223V, V226H, T228D counted along it

POC (percent of control, FACS Geo Mean relative to binding to Ch. 1) [1]: 1 to 5%
POC (percent of control, FACS Geo Mean relative to binding to Ch. 1) [2]: 1 to 5%
B1: mAb 5B1.1 (antibody, human IgG2, lambda, V domains shown)
VH: QVQLVQSGAEVKKPGASVKVSCKASGYTFTDYYINWVRQAPGQGLEWMGWINPNSGGSSYAQKFQGRVTMTRDTSISTAHMELIRLRSDDTAVYYCARERGGIEDWFDPWGQGTLVTVSS
VL: QSVLTQPPSVSGAPGQRVTISCTGSSSNIGAGYDVHWYQQLPGTAPKLLIYGNSNRPSGVPDRFSGSKSGTSASLAITKFQAEDEAVYYCQSYGSGLSGVVFGGGTKLTVLG
notes: fully human IgG2 lambda, Campaign 2; also called mAb 5Bl1.1

IC50 IL-4 release, cynomolgus whole blood, Cyno # 1 (cynomolgus Orai1): 0.921 nM
IC50 IL-4 release, cynomolgus whole blood, Cyno # 2 (cynomolgus Orai1): 6.34 nM
IC50 IL-4 release, cynomolgus whole blood, Cyno # 3 (cynomolgus Orai1): 0.429 nM
IC50 IL-5 release, cynomolgus whole blood, Cyno # 1 (cynomolgus Orai1): 1.56 nM
IC50 IL-5 release, cynomolgus whole blood, Cyno # 2 (cynomolgus Orai1): 15.2 nM
IC50 IL-5 release, cynomolgus whole blood, Cyno # 3 (cynomolgus Orai1): 0.815 nM
IC50 IL-17 release, cynomolgus whole blood, Cyno # 1 (cynomolgus Orai1): 0.939 nM
IC50 IL-17 release, cynomolgus whole blood, Cyno # 2 (cynomolgus Orai1): 0.95 nM
IC50 IL-17 release, cynomolgus whole blood, Cyno # 3 (cynomolgus Orai1): 0.32 nM
B3: mAb 2C1.1 (antibody, human IgG2, lambda, V domains shown)
VH: QVQLQQWGAGLLKPSETLSLTCAVYGGSFSGYYWSWIRQPPGKGLEWIGEIDHSGSTNYNPALKSRLTISVDTSKNQFSLKLSSVTAADTAVYYCARAGSGGYEDWFDPWGQGTLVTVSS
VL: QSVLTQPPSVSGAPGQRVTISCTGSSSNIGAGYNVHWYQQFPRTDPKLLIYVYNIRPSGVPDRFSGSRSGTSASLAITGLQTEDEADYYCQSYDSSLSGVVFGGGTKLTVLG
notes: fully human IgG2 lambda, Campaign 1; tested hybridoma-purified and recombinant; also called anti-hOrai1 mAb 2C1.1

Further lines, the binder ahead of its results:

B2: mAb 2D2.1 (antibody, human IgG2, lambda, V domains shown)
VH: QVQLQQWGAGLLKPSETLSLTCAVYGGSFSGYYWSWIRQPPGKGLEWIGEIDHSGRINYNPALKSRLTISVDTSKNQFSLKLSSVTAADTAVYYCARAGSGGYEDWFDPWGQGTLVTVSS
VL: QSVLTQPPSVSGAPGQRVTISCTGSSSNIGAGYNVHWYQQFPRTDPKLLIYVYNIRPSGVPDRFSGSRSGTSASLAITGLQTEDEADYYCQSYDSSLSGVVFGGGTKLTVLG
notes: fully human IgG2 lambda, Campaign 1; also called mAb 2D.1
binding result [3]: binds
binding result [4]: binds

B4: mAb 2B4.1 (antibody, human IgG2, lambda, V domains shown)
VH: QVQLVQSGAEVKKPGASVKVSCKASGYTFTDYYMHWVRQAPGQGLEWMGWINPNSGGTNYVQKFQDRVTMTRDTSITTAYMELTRLRSDDTAVYYCAREEGDYGMDVWGQGTTVTVSS
VL: QSVLTQPPSVSGAPGQRVTISCTGSNSNIGTGYDVHWYQKLPGTAPRLLIYSHFNRPSGVPDRFSGSTSGTSASLAITGLQAEDEADYYCQSYDSSLSGSVFGGGTKLTVLG
binding result [5]: binds
binding result [6]: binds
binding result [7]: binds
